The values below come from PMC9527319, “^99mTc-labeled iRGD for single-positron emission computed tomography imaging of triple-negative breast cancer” (Frontiers in Bioengineering and Biotechnology, 2022).

A short description of series [1]: Pharmacokinetics (blood radioactivity-time curve). It counts as in vivo. The note with it: healthy ICR mice; for clear-phase half-life t1/2(β) / distribution phase half-life t1/2(α): i.v., blood, two-compartment model (DAS 2.0); for tissue uptake at 1 min / tissue uptake at 0.5 h / tissue uptake at 3 h: mouse, whole blood, iv, 20 uCi, total radioactivity, i.v. 20 μCi in 200 μl PBS, γ-counter, read-out: radioactivity level in blood; for tissue uptake at 1 min / tissue uptake at 0.5 h: mean ± SD; for tissue uptake at 0.5 h: 30 min; for tissue uptake at 3 h: 180 min. The procedure:
The pharmacokinetic profiles of ^99mTc-HYNIC-iRGD and ^99mTc-HYNIC-iRGE were evaluated in healthy ICR mice. Each mouse was intravenously injected with ^99mTc-HYNIC-iRGD or ^99mTc-HYNIC-iRGE at a dose of 20 μCi in 200 μl PBS solution. Blood samples ([…]) from each mouse were immediately collected and weighed at designated times (1, 2, 5, 15, 30, 60, 120, and 180 min), and the radioactivity was measured using a γ-counter to calculate the %ID/g. Moreover, the pharmacokinetic data were analyzed by DAS 2.0 (Shanghai, China) using a two-compartment model to calculate the half-lives of ^99mTc-HYNIC-iRGD and ^99mTc-HYNIC-iRGE in blood.

Series [2] is described as follows: In vitro stability of 99mTc-labeled peptides in PBS and cysteine solution (RCP by TLC). Format: physicochemical. The following applies: PBS (0.1 M, pH = 7.4) and cysteine solution (100-fold molar excess over the peptides), room temperature, within 6 h, RCP by TLC (silica gel 60 F254, 50% acetonitrile). The procedure:
(§1) HYNIC-iRGD, HYNIC-iRGE, and HYNIC-CG7C were labeled with ^99mTc according to previously published procedures in the literature ([Bohn et al., 2013]; [Xu et al., 2017]; [Gong et al., 2022]). In brief, a mixture of 50 μl HYNIC-modified peptide (1 mg/ml in water), 0.5 ml EDDA solution (20 mg/ml in 0.1 M NaOH), 0.5 ml tricine solution (40 mg/ml in 0.2 M PBS, pH = 6.0), 1 ml Na^99mTcO4 solution (50 mCi/ml), and 50 μl SnCl2 solution (1 mg/ml in 0.1 M HCl) were heated at 100°C for 15 min. After cooling to room temperature, the mixture was analyzed using instant thin-layer chromatography (TLC) and radio-high-performance liquid chromatography (radio-HPLC). The ^99mTc-labeled peptides were characterized using an Agilent 1260 HPLC system (Agilent Technologies, United States) equipped with a UV-vis detector (λ = 220 nm) and a radioactive flow detector (BioScan, United States). A SunFire C18 column (5 μm, 4.6 × 250 mm, Waters, Japan) was used at a flow rate of 1 ml/min with the following gradient method: 0.1% Trifluoroacetic acid in H2O and CH3CN (0–20 min, 10%–35% CH3CN) for iRGD and iRGE, and 0.1% trifluoroacetic acid in H2O and CH3CN (0–20 min, 25%–60% CH3CN) for CG7C. Their RCPs were determined by radio-HPLC and rapidly analyzed by TLC in a system consisting of silica gel 60 F254 TLC plates (Merck, Germany) and 50% acetonitrile as mobile phase. […]

The nature of series [3]: In vitro stability of 99mTc-labeled peptides in FBS (RCP by TLC). The note with it: FBS at 37°C, within 6 h, RCP by TLC (silica gel 60 F254, 50% acetonitrile). Format: in vitro ADME, bovine. The protocol: as §1
Series [4] deals with 4T1 tumor-bearing mice. The note with it: for course of SPECT signal in tumor with time: i.v. tail vein, 0.5, 1, 2 and 4 h post-injection; for tumor accumulation (SPECT): i.v. tail vein, 0.5 h post-injection. The text has this: Murine breast cancer cells 4T1 were purchased from Procell Life Science and Technology Co., Ltd. (Wuhan, China) and maintained in RPMI-1640 supplemented with 10% FBS. Four-week-old female BALB/c nude mice (18–20 g) and healthy ICR mice (20–22 g) were purchased from Shanghai Laboratory Animal Center of the Chinese Academy of Sciences (Shanghai, China). To establish breast cancer models, four-week-old female BALB/c nude mice were subcutaneously injected in their right-side flanks with 5 × 10^6 4T1 cells suspended in 100 μl of PBS. When the tumor diameter reached 0.8–1.2 cm, the mice were used for animal experiments. All animal experiments were repeated three times and performed according to the protocols established by the Ethics Committee of Shanghai General Hospital.
The 4T1 tumor-bearing mice were randomly divided into three groups (three mice per group). After anesthetization with pentobarbital sodium (40 mg/kg), 200 μl of ^99mTc-HYNIC-iRGD, ^99mTc-HYNIC-iRGE, or ^99mTc-HYNIC-CG7C ([^99mTc] = 10 mCi/ml) was injected via the tail vein. SPECT images were acquired at 0.5, 1, 2, and 4 h post-injection using a SPECT imaging system equipped with a Xeleris 2.0 workstation and low-energy general-purpose collimators (Infinia, Denver, CO, United States).

The test system of series [5] is 4T1 tumor-bearing mice. The experiment in a line: Biodistribution (gamma-counter, %ID/g). It counts as in vivo. The procedure: The radioactivity counts of all samples were measured using a γ-counter (CAPINTEC, United States) and expressed as counts per minute after correction for decay. The results are shown as the percentage of injection dose/gram (%ID/g) of wet tissue for each time point in each group.

Where [6] appears, read: i.v. 20 μCi, 4 h post-injection.

Read-outs that look alike come from different tables or passages of the source. Bridge positions count the residues as written; N and C are the ends. Peptide text beside a SMILES is read from it. * marks the point of attachment. HYNIC = NNc1ccc(C(=O)*)cn1

Regarding `N=C(N)NCCC[C@@H]1NC(=O)[C@@H](NC(=O)c2ccc(NN)nc2)CSSC[C@@H](C(=O)O)NC(=O)[C@H](CC(=O)O)NC(=O)[C@@H]2CCCN2C(=O)CNC(=O)[C@H](CCCCN)NC(=O)[C@H](CC(=O)O)NC(=O)CNC1=O` [^99mTc-HYNIC-iRGD, metal not drawn], in series [1], the “clear-phase half-life t1/2(β)” value is 12.54 min, the “distribution phase half-life t1/2(α)” value was 1.43 min, the tissue uptake at 1 min was determined as 14.3 ± 0.95 %ID/g and the tissue uptake at 0.5 h came out at 1.26 ± 0.11 %ID/g. In addition, the tissue uptake at 3 h in series [1] is ~0.1 %ID/g. Further, the “changes in RCPs (stability in vitro)” value in series [2] was “no obvious changes in RCPs”. Besides, in series [3], the “changes in RCPs (stability in vitro)” value is “no obvious changes in RCPs”. In addition, in series [4] (4T1 tumor-bearing nude mice), the “course of SPECT signal in tumor with time” value is recorded as “increase in tumor accumulation of radioactivity” and the “tumor accumulation (SPECT)” value was “distinct tumor accumulation”. In addition, the “radioactivity in bladder and kidneys (SPECT; clearance through the urinary system)” value in series [4] (4T1 tumor-bearing nude mice, i.v., each time point 0.5–4 h) is “high radioactivity”. Moreover, the “tumor-to-muscle (T/M) ratio” value in series [5] (i.v. 20 μCi, 0.5, 1, 2 and 4 h post-injection) was “higher in mice treated with ^99mTc-HYNIC-iRGD than in those treated with ^99mTc-HYNIC-iRGE at each time point”. Moreover, in series [5] (i.v. 20 μCi, 0.5–4 h post-injection), the “tumor-to-kidney (T/K) ratio” value is “much higher than for ^99mTc-HYNIC-iRGE and ^99mTc-HYNIC-CG7C”. Further, in series [5] (setting [6]), the “tumor-to-blood (T/B) ratio” value stood at 1.8 and the “tumor-to-lung (T/Lu) ratio” value came to 1.9.

As for `N=C(N)NCCC[C@@H]1NC(=O)[C@@H](NC(=O)c2ccc(NN)nc2)CSSC[C@@H](C(=O)O)NC(=O)[C@H](CC(=O)O)NC(=O)[C@@H]2CCCN2C(=O)CNC(=O)[C@H](CCCCN)NC(=O)[C@H](CCC(=O)O)NC(=O)CNC1=O` [^99mTc-HYNIC-iRGE, metal not drawn] ({HYNIC}-CRGEKGPDC-OH; disulfide 1-9 (inferred); N-terminus and C-terminus assumed), in series [1], the “clear-phase half-life t1/2(β)” value was 10.56 min, the “distribution phase half-life t1/2(α)” value turned out to be 0.88 min, the tissue uptake at 1 min is 19.3 ± 2.52 %ID/g and the tissue uptake at 0.5 h turned out to be 1.06 ± 0.08 %ID/g. Moreover, in series [1], the tissue uptake at 3 h was ~0.1 %ID/g. Further, the “changes in RCPs (stability in vitro)” value in series [2] is given as “no obvious changes in RCPs”. Moreover, the “changes in RCPs (stability in vitro)” value in series [3] is “no obvious changes in RCPs”. In series [4] (4T1 tumor-bearing nude mice), the “course of SPECT signal in tumor with time” value is listed as “gradually faded with time” and the “tumor accumulation (SPECT)” value is “distinct tumor accumulation”. Also, the “radioactivity in bladder and kidneys (SPECT; clearance through the urinary system)” value in series [4] (mouse, in vivo, iv) is on record as “high radioactivity”.
